Usually EC50 stands for the midpoint of the concentration-response curve. Read a high EC50 as lower potency in that assay. The term koff denotes a measure of how fast the partners let go of each other. Read a low koff as a long-lived complex. By kon is commonly meant the rate constant with which the complex forms. A high value points to fast association. For orientation: Kd means the constant that tells how readily two partners part at equilibrium. Low values mean higher affinity, high ones lower affinity.

We go through four molecules from patent US20230159646A1 (IBIO, published 2023).

Assay [1] deals with T1, CD25 endogenously expressed on SUDHL-1 human lymphoma cell line and on induced human Treg (iTreg) (human, UniProt P01589 22-272).
T1 construct: whole, on cells; also called CD25 on SUDHL-1 and iTreg; CD25 expressing SUDHL-1
T1 sequence (looked up): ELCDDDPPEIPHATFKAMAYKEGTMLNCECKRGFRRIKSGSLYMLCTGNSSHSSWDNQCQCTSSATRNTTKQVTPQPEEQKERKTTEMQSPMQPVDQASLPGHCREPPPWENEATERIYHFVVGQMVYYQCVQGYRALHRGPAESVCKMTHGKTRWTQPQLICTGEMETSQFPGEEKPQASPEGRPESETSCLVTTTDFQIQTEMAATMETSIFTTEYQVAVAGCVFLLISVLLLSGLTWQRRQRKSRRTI
Description: flow cytometry, SUDHL-1 cells; average of n>=6, SD 38.12. A general note: A flow cytometer gives signals particle by particle.

The target in assay [2] is T1, CD25 endogenously expressed on SUDHL-1 …. Description: flow cytometry, human iTreg cells; average of n=3, SD 83.94.
Assay [3] addresses T2, cynomolgus CD25 (Sino Biologicals, 90265-C08H) (cynomolgus, UniProt H6WS54 22-213).
T2 construct: Bought recombinant protein coated on ELISA plates; also called immobilized cynomolgus CD25; cynos monkey CD25
T2 sequence: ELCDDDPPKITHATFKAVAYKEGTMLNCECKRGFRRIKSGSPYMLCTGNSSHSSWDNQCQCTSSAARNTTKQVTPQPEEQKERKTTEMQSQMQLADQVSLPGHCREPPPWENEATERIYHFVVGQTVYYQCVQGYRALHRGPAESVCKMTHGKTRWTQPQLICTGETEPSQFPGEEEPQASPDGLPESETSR
Kind of assay: ELISA, immobilized cynomolgus CD25; average of n>=3, SD 9.8.

For assay [4], the target named is T3, mouse CD25 (immobilized, ELISA) (mouse, UniProt P01590 22-236, limits assumed).
T3 construct: also called immobilized mouse CD25
T3 sequence (looked up): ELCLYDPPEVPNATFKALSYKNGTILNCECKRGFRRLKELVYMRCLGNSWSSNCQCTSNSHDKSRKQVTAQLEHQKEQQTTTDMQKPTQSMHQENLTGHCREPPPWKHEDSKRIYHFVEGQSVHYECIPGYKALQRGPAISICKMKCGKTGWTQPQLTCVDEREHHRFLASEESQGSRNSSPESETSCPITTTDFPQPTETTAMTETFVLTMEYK
Description: ELISA, immobilized mouse CD25 (N/A in the 14th table, row 10, column 6).

Assay [5] deals with T4, human CD25 (Sino Biologicals, 10165-H08H) (human, UniProt P01589 22-213).
T4 construct: Bought recombinant protein coated on ELISA plates; also called immobilized human CD25; IL2RA
T4 sequence (looked up): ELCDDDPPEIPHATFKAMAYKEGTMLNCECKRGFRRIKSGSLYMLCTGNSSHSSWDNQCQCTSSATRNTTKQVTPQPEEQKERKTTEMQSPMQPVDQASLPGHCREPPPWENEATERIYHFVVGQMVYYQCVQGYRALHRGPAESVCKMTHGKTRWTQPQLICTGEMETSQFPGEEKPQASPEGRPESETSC
Kind of assay: ELISA, immobilized human CD25; average of n>=3, SD 3.2. On the technique in general: In an ELISA, binding on a coated surface is turned into a signal by an enzyme label.

Assay [6] has as its target T5, CD25 (as used in the Carterra LSA kinetics; species and construct not stated) (Homo sapiens (Human), UniProt P01589 22-240).
T5 sequence: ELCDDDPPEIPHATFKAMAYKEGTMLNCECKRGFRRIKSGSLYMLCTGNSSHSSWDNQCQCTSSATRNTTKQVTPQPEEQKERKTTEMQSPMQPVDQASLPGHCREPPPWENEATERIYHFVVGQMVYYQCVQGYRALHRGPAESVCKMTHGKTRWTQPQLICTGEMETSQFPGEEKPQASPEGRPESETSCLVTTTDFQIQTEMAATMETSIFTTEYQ
Description: Carterra LSA kinetics.

For assay [7], the target named is T5, CD25 (as used in the Carterra LSA …). Description: Carterra LSA kinetics; KD SD 1.27 nM.
The target of assay [8] is T3, mouse CD25 (immobilized, ELISA). Description: ELISA, immobilized mouse CD25 (N/A in the 14th table, row 7, column 6).
Assay [9] deals with T2, cynomolgus CD25 (Sino Biologicals, …). Kind of assay: ELISA, immobilized cynomolgus CD25; average of n>=3, SD 12.3.
Assay [10] deals with T5, CD25 (as used in the Carterra LSA …). Description: Carterra LSA kinetics; KD SD 1.03 nM.
Assay [11] addresses T1, CD25 endogenously expressed on SUDHL-1 …. Description: flow cytometry, human iTreg cells; average of n=3, SD 40.50.
Assay [12] shares this target. Kind of assay: flow cytometry, SUDHL-1 cells; average of n>=6, SD 39.9.
The target of assay [13] is T4, human CD25 (Sino Biologicals, …). Description: ELISA, immobilized human CD25; average of n>=3, SD 2.5.
Assay [14] deals with T3, mouse CD25 (immobilized, ELISA). Kind of assay: ELISA, immobilized mouse CD25 (N/A in the 14th table, row 8, column 6).
Assay [15] has the same target. Description: ELISA, immobilized mouse CD25 (N/A in the 14th table, row 9, column 6).

B1: IBIO-101-plant-afuc (SD-889825-PC-A; IBIO-101, c-105 plant Afucosylated) (antibody, human IgG1, kappa, V domains shown)
VH: QVQLVQSGAEVKKPGASLKISCKGSGYTFTDYAMHWVRQAPGQGLEWIGVISTYSGDAIYAQKFQGRATMTVDTSTSTAYLELSSLRSEDTAVYYCARGVTFDYWGQGTTVTVSS
VL: DIQMTQSPSSLSASVGDRVTITCRASQDISNYLEWYQQKPGKAPKLLVYNAKTLAEGVPSRFSGSGSGTDFTLTISSLQPEDFGTYYCQHHYDTPYTFGQGTKLEIKR
modifications: afucosylated glycan (made in C105 dXT/FT plants deficient in fucosylation and xylosylation)
notes: Signal peptide of the entries is not part of the mature antibody; Human IgG1 constant region, afucosylated; also called RTX-003; hD11
With B1, the EC50 was 0.123 µg/mL in assay [1], 0.218 µg/mL in assay [2], 0.0424 µg/mL in assay [3] and 0.0174 µg/mL in assay [5]. In addition, the binding result in assay [4] was “no binding (tested: 10 µg/mL)”. In addition, the koff in assay [6] was found to be 0.00207 s⁻¹. In assay [6], this molecule came in with a kon of 492000 M⁻¹ s⁻¹. This molecule also displayed a Kd in [7] of 4.27 nM.

B2: IBIO-101-CHO-WT (SD-889825-CW-A; IBIO-101, wild-type CHO cells) (antibody, human IgG1, kappa, V domains shown)
VH: QVQLVQSGAEVKKPGASLKISCKGSGYTFTDYAMHWVRQAPGQGLEWIGVISTYSGDAIYAQKFQGRATMTVDTSTSTAYLELSSLRSEDTAVYYCARGVTFDYWGQGTTVTVSS
VL: DIQMTQSPSSLSASVGDRVTITCRASQDISNYLEWYQQKPGKAPKLLVYNAKTLAEGVPSRFSGSGSGTDFTLTISSLQPEDFGTYYCQHHYDTPYTFGQGTKLEIKR
notes: the entries carry the plant extensin signal peptide, which is not part of the mature antibody; Human IgG1 constant region, fucosylated (WT); also called RTX-003; hD11
Regarding B2, the binding result in assay [8] is “no binding (tested: 10 µg/mL)”.

B3: IBIO-101-CHO-afuc (SD-889825-CG-A; IBIO-101, CHO cells Afucosylated) (antibody, human IgG1, kappa, V domains shown)
VH: QVQLVQSGAEVKKPGASLKISCKGSGYTFTDYAMHWVRQAPGQGLEWIGVISTYSGDAIYAQKFQGRATMTVDTSTSTAYLELSSLRSEDTAVYYCARGVTFDYWGQGTTVTVSS
VL: DIQMTQSPSSLSASVGDRVTITCRASQDISNYLEWYQQKPGKAPKLLVYNAKTLAEGVPSRFSGSGSGTDFTLTISSLQPEDFGTYYCQHHYDTPYTFGQGTKLEIKR
modifications: afucosylated glycan (as printed: afucosylated)
notes: signal peptide of the entries is not part of the mature antibody; Human IgG1 constant region, afucosylated; also called RTX-003; hD11
As for B3, the EC50 in assay [9] came to 0.0431 µg/mL; in assay [11], 0.219 µg/mL; in [12], 0.126 µg/mL; in [13], 0.0156 µg/mL. In assay [10], this molecule showed a Kd of 3.9 nM. In [6], this molecule showed a koff of 0.00119 s⁻¹. The molecule also registered an on-rate constant (kon) in [6] of 499000 M⁻¹ s⁻¹. The binding result in assay [14] is “no binding (tested: 10 µg/mL)”.

B4: IBIO-101-plant-WT (SD-889825-PW-A; IBIO-101, wild-type plant) (antibody, human IgG1, kappa, V domains shown)
VH: QVQLVQSGAEVKKPGASLKISCKGSGYTFTDYAMHWVRQAPGQGLEWIGVISTYSGDAIYAQKFQGRATMTVDTSTSTAYLELSSLRSEDTAVYYCARGVTFDYWGQGTTVTVSS
VL: DIQMTQSPSSLSASVGDRVTITCRASQDISNYLEWYQQKPGKAPKLLVYNAKTLAEGVPSRFSGSGSGTDFTLTISSLQPEDFGTYYCQHHYDTPYTFGQGTKLEIKR
notes: Signal peptide of the entries is not part of the mature antibody; Made in wild-type Nicotiana benthamiana; human IgG1 constant region; also called RTX-003; hD11
Regarding B4, the binding result in assay [15] was “no binding (tested: 10 µg/mL)”.
